Each block holds one molecule with its values, some of them ahead of it.
What was measured:
[1] = system: blood glucose; test: Oral glucose tolerance test (OGTT) in mouse model; type: in vivo, C57 male mice
Procedure: The effect of IP088 on glycemic control in a mouse model was carried out as follows. Twenty-one (21) male C57 male mice (11-12 weeks old) were purchased from Taconic, Denmark and acclimatized for 3 weeks before experimentation. Throughout the acclimatization period the animals are offered ad libitum chow and tap water. Mice were single housed one week prior to the study. On day 1 of the study animals were randomized into 4 groups based on body weight (n=5-6 per group), and were administered the following compounds subcutaneously four hours (IP088, IP040, and GLP1a-Fc) or two hours (liraglutide) prior to each oral glucose tolerance test:
Group 6: Liraglutide (GLP-1 analog, Novo Nordisk) 0.2 mg/kg S.C.
Group 7: GLP1a-Fc (GLP-1 agonist) 1 mg/kg S.C.
Group 8: IP088 1 mg/kg S.C.
Oral glucose tolerance tests (OGTT) were performed on days 0 and 2, both after a 4-hour fast. […] Blood glucose was measured from tail vein blood before glucose (at t=−240, −120 and 0 min, baseline) and after glucose administration at t=15, 30, 60 and 120 min. Blood samples (tail vein) were collected into […] heparinized glass capillary tubes and immediately suspended in buffer (0.5 ml of glucose/lactate system solution (EKF-diagnostics, Germany) and analyzed for glucose on the test day using a BIOSEN c-Line glucose meter (EKF-diagnostics, Germany) according to manufacturer's instructions.

[2] = Extended pharmacokinetics, serum ELISA for protein (Fc) detection; type: in vivo, CD male rats; conditions: 1 mg/kg subcutaneously or intravenously, serum out to 168 hours
Procedure: More extended pharmacokinetic assays to determine protein stability and activity were performed as follows. CD male rats (n=3) were injected subcutaneously or intravenously with 1 mg/kg IP088 or GLP1a-Fc. Periodic serum samples were obtained out to 168 hours. The serum samples were subjected to ELISA for protein (Fc) detection by the following method. ELISA plates (Costar 3690) were coated with Mouse anti-human IgG (JCD-10) 1/500 in PBS (final concentration 1 μg/ml). […] was added to each well and the plates were incubated overnight at 4° C. Following washing with PBS-Tween (PBS-T), the plates were blocked with […] 1% BSA in PBS for 1 h at RT with gentle shaking. Following washing with PBS-T, standards, and dilutions of […] samples were added (50 μl/well), and the plate was incubated for 2 h at RT with gentle shaking. Following washing […] biotinylated mouse anti-human IgG (JCD-10) diluted 1/1000 in ELISA incubation buffer (final concentration 0.5 μg/ml) was added to each well and the plates were incubated for 1 h at RT with gentle shaking. Following washing […] of Streptavidin-HRP diluted 1/1000 in ELISA incubation buffer was added to each well, and the plates were incubated for 45 min at RT with gentle shaking. […]

[3] = biological target: T1, hGIPr (C3) (Homo sapiens, UniProt P48546); test: BSA-cAMP assay, second human GIPr cell line hGIPr (C3); type: cell-based; conditions: Batch 1, second hGIPr cell line, read-out: hGIPr (C3) cAMP activity EC50
T1 construct: expressed in transfected cells
T1 sequence (P48546 22-466): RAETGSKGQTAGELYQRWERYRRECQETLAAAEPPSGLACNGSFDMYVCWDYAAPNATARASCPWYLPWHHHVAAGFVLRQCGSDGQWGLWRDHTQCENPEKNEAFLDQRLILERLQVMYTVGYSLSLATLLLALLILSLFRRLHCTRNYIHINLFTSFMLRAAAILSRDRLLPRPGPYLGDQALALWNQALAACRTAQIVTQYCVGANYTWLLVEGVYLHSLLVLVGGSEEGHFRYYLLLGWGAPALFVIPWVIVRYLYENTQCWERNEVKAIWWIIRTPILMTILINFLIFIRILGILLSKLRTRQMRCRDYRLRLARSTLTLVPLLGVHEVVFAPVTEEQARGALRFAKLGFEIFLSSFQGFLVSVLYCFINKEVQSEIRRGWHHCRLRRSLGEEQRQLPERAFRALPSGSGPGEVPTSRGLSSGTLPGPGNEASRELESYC
Procedure: For human GIPr, two different lines were used, shown as “hGIPr” and “hGIPr (C3)” in Table 11. Peptide activation of these various receptors results in downstream production of cAMP second messenger that can be measured in a functional activity assay.
One basic cAMP assays was performed, differing in the medium used for the assay, the “BSA-cAMP assay”:
BSA-based assay medium: 0.1% bovine serum albumin (BSA) in
Hanks Balanced Salt Solution (GIBCO or Sigma), containing 0.5 mM IBMX (Sigma #17018);
In certain aspects, the assay can also be carried out in medium supplemented with serum albumin that corresponds to the receptor being tested, e.g., human serum albumin for testing cAMP activity at hGIPr or hGLP-1r, rat serum albumin for testing cAMP activity at rGIPr or rGLP-1r, and so on. […]
cAMP levels were measured using a commercially available cAMP dynamic 2 HTRF kit (Cisbio, Cat #62AM4PEJ), following the two step protocol as per manufacturer's recommendations. […] Plates were incubated at room temperature for one hour and then read on an Envision (Perkin Elmer) using excitation wavelength of 320 nm and emission wavelengths of 620 nm & 665 nm. Data was transformed to % Delta F as described in manufacturer's guidelines and then transformed to percent activation of maximal native agonist response and analysed by 4-parameter logistic fit to determine EC50 values. […]

B1: IP088: Fc fusion, IgG1-TM, SEQ ID NO:105; agonist peptide YSEGTFTSDYSKLLEEEAVRLFIEWLVKGP (SEQ ID NO:15) (protein)
chain: YSEGTFTSDYSKLLEEEAVRLFIEWLVKGPAAAGGSGSTASSGSGSATGGGGAATHTCPPCPAPEF
modifications: also: Fc fusion, IgG1-TM
glycemic control in OGTT compared with GLP1a-Fc, in words ([1]; 1 mg/kg S.C. each, OGTT days 0 and 2): superior to GLP1a-Fc at glycemic control
glucose lowering effect in OGTT, in words ([1]; 1 mg/kg S.C. four hours before OGTT, days 0 and 2, 2 g/kg oral glucose): excellent glucose lowering effects
PK profile by Fc ELISA (Cmax, bioavailability, half-life), in words [2]: equivalent PK profiles

EC50 [3]: 13 nM
B2: IP367 (protein)
chain: YSEGTFTSDYRILKERQAIDEFIAWLLKGGAAAGGSGSTASSGSGSATGGGGAATHTCPPC

From patent US20160185837A1 (Medimmune Limited, priority 2013, published 2016)
